The values that follow come from a protein production outcome set (Wang et al. 2014).

The nature of this data set: label from the status in PepcDB records.
Regarding “MIRNSGIHHEKLSQLLQSGHSLWVLYLDIAKFHEVEFRQGYRACAQILDLVLTEMKHTLHNYMHLFHTILLDYQGGDDFLFYFAPNENTPWSIAKLIPEFVPTLESRINHRIQRLVNETITLHSGLVECKPQPGRSVDYLLYGALKEAFLLNKSEPDPLYFSHREEVNRLLEEPQTYLSSAFQPILDVVSGEFFGFEALTRLKPPSSFAGIADLFPFAEKIGQLYPVETICRRTAILNSSQILRPKELLFLNVEPQVLTDPEFSSGQTRRLLETQGLTPSDVVLEITERSAIANYGTFREALEHYRKQGYLIALDDVGAGYSSLQSIAELHPDFLKIDRCLIQGIHLDPIKWALFETFVTFSRRIGCRILAEGVETQEEMRTVVQLGADYVQGYFIAKPSFTRPELSDPVTQIVQSQQRLSFNSEKTVQHLLEPLPLVTPQTTVNAVQNYFEEHAKIWLIGVADKGELLGVVQRDNLYSALATPFGVSLYSQRPVTSLMNNKQLLIEDTTPIEVASSLAMARPDAHLYDGIVVVQQQKPIGMIRVASLIKAMSDTQLQIAQGASPLTGLPGNSAIEQEIKRRLNSGNAFGMIYADLNQFKAFNDTYGFQYGDSIIKLLGKILMQDSLKADDLAFVGHVGGDDFIILTTQNVTKTLGETILLSFQEQLSAMQGAQDLSLALAGLIIYPHTAWTPATLSERIAAVKREAKKAHCNYFLLRE”, the protein production entry is given as “failed”.

“MAFVRYIPCRKIPRNVDQFELPCLGSLRAFFSTQKLIGDEPVLVRDFIHTALYDPIQGYFSQRSKSVGVLERSIKFNQLEGRKAYMKLLEKVYKQSDISWFTPVELFKPWYAHGIAEAILRTTNLSVPLKGVLDYIMLNAPERIYKNMSYTSIEISPSLAKIQKETVAQVGSHLSKFRVECRDASDLAGWSKVLFVQHKADSGFQFPVAMLEFENVEQQPCWVIMLEVLDNLPHDLVYSKSQLSPWMEVLVENKPESEALSELYKPLEDPLIKRCIEIVEHEDDPKLLEVLHAKLPKMSLIASDFSFLPDVKVPGERAPLVSTKKDGCSSDYSSYLDAKGDADIFFPTDFWLLERMDHYCSGWRKMEKDGTPSKKGRKRRTLTVNQDSL”: the protein production entry was “failed”.

In the case of “MSLSVKILFKNATVFPITSRPFKGDVLVSNGKVEKVGENIEDPDAEIVDLTGKFLFPGFVDAHSHIGLFEEGVGYYYSDGNEATDPVTPHVKALDGFNPQDPAIERALAGGVTSVMIVPGSANPVGGQGSVIKFRSIIVEECIVKDPAGLKMAFGENPKRVYGERKQTPSTRMGTAGVIRDYFTKVKNYMKKKELAQKEGKEFTETDLKMEVGEMVLRKKIPARMHAHRADDILTAIRIAEEFGFNLVIEHGTEAYKISKVLAEKKIPVVVGPLLTFRTKLELKDLTMETIAKLLKDGVLIALMCDHPVIPLEFATVQAATAMRYGAKEEDLLKILTVNPAKILGLEDRIGSIEPGKDADLVVWSGHPFDMKSVVERVYIDGVEVFRREGHHHHHH”, the protein production entry is “not failed”. As for “MERTLSDSQIRYIKARERRNLRGAQAFICLFLSLFVLILLQGVWLLISPRLACALLVPWAIFLWWWVFHRLKGQQSEVAARTQWLQGQFSATWVSSHRNGHFSYSFGDYPIAACCRLNNLFNEKRLDLHTRYRVEAALLTCSQTASHSYYLFGDTLVPVTRAPETDEQPGS”, the protein production entry was “failed”. Take “MGLTSHKYKYVSIYFLALLFLGIAVIESLHISHTRDLQEGLRQQAKEDLSIVRFQLEAEILGDIYTVKGLTTLLTLDPDLNIYQWEPLSAAVIRNSDHLRSLGIAPNDVVAFSYPLPQTNALLGLDYRTVPQQWQSIKKAREIKQTFVSGPVDLVQGGRALVIREPIFYDPPKDTRYWGVLSVVMDWDSLLSATSIYSFGEHFQVAIRGLDSRGSEGDVFFGEPRVFEHAFAQENVYFPYGSWRIAVAEKQDLLQQLSWYTRNAVRLLGYSVLLVLMAGFGVIMRLYQVAEERALHDPLTHLPNRRYFIYTIEHYFENAKRSHSEGNFALLNIDIDRFKSINDSHGHSAGDKVLVACAERIKSSLRVSDLVARIGGDEFLVLIPRIHREQDVLKVSDNILKRISETPIVYDDKLIHVRVSIGYALYDQSFATPDEMFKLADERMYTAKRRQNPLYRF”: the protein production result was “failed”. The same measure for “MKLVICIVQDDDAGELIDVLTDKGLRVTKLATTGGFLKAGNTTLMIGVEEKAVDGVIETIEDVCKTRQQVVTSPSPVAGSTGVYVPYPIDVEVGGATIFVVDVDKFIKI”: “failed”; for “MTTDTGELVRTNQGTSSEVSSETGTAVQTLSVLYGSQTGNAEFLASKIVDKANGQGYAAELMSLDMLTPQEAARKDRLLIVTATHDNGHMPDNAQPFWDQLQSAGSDLFKDVPFAVLAIGDSMYEDFCKAGSDLDERLGKLGGKRILDRLDCDVDYDLTSGKWIRGMLETFKTVVPKKRDNNPEDSTVPGANPAEQPKGTRREPDTATVVEARLLSAPESEKEVWHYELEVSGDSRNYRPGDSLAVIPTNNIELVEDLLGFLGLAGSEVFGEDGKTVRETLQNDYELRLPHLGIVAWLVENLAPDHPVRNLVESGDRNALEDWLWGRDMLDVLQETRTTDVDPGEFLSMLRPLQHRSYSIASSPLADGDRVHLTVSTVQYETAGRRHSGACSGFLQSAAQTKTTIKVFPLPAHEFHLPHDNSADVIMVGPGVGVAPFRGFLRDREVSQARGRNWLFFGDRHEKPSWLYQEEMEELQSNGVLNRLSVAFSRDQQGKVYVQDRIREEGDGIFAWLSGGASVYVCGGKQIAPDIDEALLAVLRSHGAMTPEKAHDYLQSLKSEGRYVKDVY”: “failed”. For the sequence “MNVYFLGGGNMAAAVAGGLVKQGGYRIYIANRGAEKRERLEKELGVETSATLPELHSDDVLILAVKPQDMEAACKNIRTNGALVLSVAAGLSVGTLSRYLGGTRRIVRVMPNTPGKIGLGVSGMYAEAEVSETDRRIADRIMKSVGLTVWLDDEEKMHGITGISGSGPAYVFYLLDALQNAAIRQGFDMAEARALSLATFKGAVALAEQTGEDFEKLQKNVTSKGGTTHEAVEAFRRHRVAEAISEGVCACVRRSQEMERQYQ”, the protein production entry is given as “not failed”. Next, “MNDFLFYLDIFGVIVFALSGALMAGRYQLDPFGVVVLASVTAVGGGTIRDVILQTPVFWVEKPYYLYVILATAILTIVLIRQPKRIPKRFLLIADALGLALFAVLGTQKALYLGAPIPVAVVLGTITGIAGGMIRDVLCNVIPMILREEIYALAAMLGGSLFIILHGLNWNDTNAMIVSISAALALRLAAIYWHVSLPAFHIVEKPKKEKGTTKIIEKK”: “failed”; “LDAILIADDEGCYVDVNAAACELFGVSREELLASTIADFAAPEFNFTQAWQQFREQEQMSGEFQLHRPNGTVRATEFAAVANFIPHRHLSIIRDVSDRQQAKANLQNSEQRLQLALSASS”: “failed”. Take “MAKTLGLHILADLYGVDADKIDRVEDIRELLEGAVKYANLTKISSHYYQFQPHGATGVVLLAESHISIHTWPEHGLATVDVYTCGDPSKAYRAMDYIITQLNPKRIDKQVHERGIVEEESNQSEAEKLRSILLQV”: the protein production entry is on record as “not failed”. Next, “MSGMVDLKEFLAELGKTQKELKNVIEQAKDIGLELKTNSKMTPEQAGKLYKYIVDGIKEQIQANQPAKNPEQDNKDDLNTAVASKSLNKKVSKTPKKEETKSQPKPKKTKEKKKEAPTPIAKKKGGIEIVNTFENQTPPTENTPKVVSHSQIEKAKQKLQEIQKSREALNKLTQSNANNASNANNAKKEISEVKKQEQEIKRHENIKRRTGFRVIKRNDEVENESENSVTESKKPTQSAAAIFEDIKKEWQEKDKQEAKKAKKPSKPKATPTAKNNKSHKIDFSDARDFKGNDIYDDETDEILLFDLHEQDNFNKEEEEKEIRQNINDRVRVQRKNPWMNESGIKRQSKKKRAFRNDNSQKVIQSTTAIPEEVRVYEFAQKANLNLADVIKTLFNLGLMVTKNDFLDKDSIEILAEEFHLEISVQNTLEEFEVEEVLEGVKKERPPVVTIMGHVDHGKTSLLDKIRDKRVAHTEAGGITQHIGAYMVEKNDKWVSFIDTPGHEAFSQMRNRGAQVTDIAVIVIAADDGVKQQTIEALEHAKAANVPVIFAMNKMDKPNVNPDKLKAECAELGYNPVDWGGEHEFIPVSAKTGDGIDNLLETILIQAGIMELKAIEEGSARAVVLEGSVEKGRGAVATVIVQSGTLSVGDSFFAETAFGKVRTMTDDQGKSIQNLKPSMVALITGLSEVPPAGSVLIGVENDSIARLQAQKRATYLRQKALSKSTKVSFDELSEMVANKELKNIPVVIKADTQGSLEAIKNSLLELNNEEVAIQVIHSGVGGITENDLSLVSSSEHAVILGFNIRPTGNVKNKAKEYNVSIKTYTVIYALIEEMRSLLLGLMSPIIEEEHTGQAEVRETFNIPKVGTIAGCVVSDGVIARGIKARLIRDGVVIHTGEILSLKRFKDDVKEVSKGYECGIMLDNYNEIKVGDVFETYKEIHKKRTL”: “failed”. The same measure for “MDDDPHFDQNVQTVIAKTEAYITESVKAGGTGRALRDAHAKGYGLVRGEVEILDGLPPEYAQGIYATPGTHDALIRFSNGSPHAGADARLGAATGLALKIFDIPGPTLLEDEPDTGTFDYANINGPIFFCNTVEHYLFIQELFLNAPAYFSQGRPGAHRFFTDFVTGKGTLDQDDWAWDEFLAFLRLSKTPPANLLLSSYWTMGAVRHGDYIAKVRITPDPSFAAAVVRRDIDPTSAQEVFRPALEAELQERPYAFDIQVQLCTDLERMPVEDTTVEWPEQLSPSVTVAKLRLPRQDISGPENLEKMDSLSFTPWRVTAEHAPLGNIMRSRKEVYRQSSMELEHHHHHH”: “failed”. As to “MKFSFHTCESNYFKDPFFYIMLSISILFSYLFSYYTILKYVSLNATAYDLGIYVSILENTMHGHVMYANPLLINSFSEHFSPFLFVIYPIYWFFPYVKTLLIMQSVMISFSGLVIYLLAREIFFINNFKKDILLEMLALFISTSYILSPYIESPLSFDFHLMPFLILFVPLSFYFFMKKYKILNLIVLILIISLHSLFVIMVFFIISYQFIFRIRNEGNLNCHKIIRTIANINISDNLKKTPKSKYVLQKIVRSKTLIKIIITLILLVGYLYFASLMKTFIASGAVALSPPSTMSTGSVSSSLAGLFTDLFTRPMLIESAFLINFPDKIIFAFYAFANTGFLVFLDPLSLLMDIPYFLYAYLSSYGPYYSLGYQYSTMIIPFIFIGALFGIRKIVQSARATDSDDVRRTIKKILVGVISIVIVSSLFELPLDPISPRNIFIESGSMANFHEFAYNNGSEIAFELQKEIGESDPYLLTINNLYPVFAKDTNAYVIAFAWNSQLRNLIYGYHIEYLVNQPDSFWSNQFNPSMNDLIDNNTFISHYGVYMESFGQDGVIVYKLNYTGLPVLMIPYSAYLPATSFYIAAGEYNYSIVNGSYVYHNTTMGTAWFGPYTTLLPGRYNITYYLESVNSEANSSILLDVTTNAGTVTLNQTVINSSELPNGDLEEVTLHLTLNETKYSVEFRGMAIDWTGTLIFKGVKYSVY”, the protein production entry is “failed”. The same measure for “MPSGLEQCAPRCRALLQGESGVQIQGHYELKFEAVREAFAALFEDSQERGAALCIQVGGETVIDLWAGTADKDGAEAWHSDTIANLFSCTKTFTAVTALQLVAEGKLKLDAPVADYWPEFAAAGKAAITLRQLLCHQAGLPAVRELLPAQALYEWQTMVDALAAEQPWWTPGEGHGYAAITYGWLVGELIRRADGRGPGESIVARVARPLGLDFHVGLADEEFYRVAHIARGKGNMGDAAAQRLLQVTMREPDAMSTRAFTNPPSILTSTNKPEWRRMQQPAANGHGNARSLAGFYSGLLDGSLLEADMLEELTREHSLGMDKTLLTQTRFGLGCMLDQPQVANATFGLGARAFGHPGAGGSIGFADPEHDVAFGFVTNTLGPYVLMDPRAQKLVRVLSDCLLEHHHHHH”: “failed”.
